Test results published in IntAct's records for PubMed 31515488.

B1: Radial spoke head protein 3 homolog (Homo sapiens), Q86UC2 (parent)
chain: MTVKPAKAASLARNLAKRRRTYLGGAAGRSQEPEVPCAAVLPGKPGDRNCPEFPPPDRTLGCWATDAAPAAGLCGAGSEPSIAPTSCAGNLPSRPPPLLSPLLASRNPCPWHYLHLSGSHNTLAPTCFKAKLHRKRGSQPPDMASALTDRTSRAPSTYTYTSRPRALPCQRSRYRDSLTQPDEEPMHYGNIMYDRRVIRGNTYALQTGPLLGRPDSLELQRQREARKRALARKQAQEQLRPQTPEPVEGRKHVDVQTELYLEEIADRIIEVDMECQTDAFLDRPPTPLFIPAKTGKDVATQILEGELFDFDLEVKPVLEVLVGKTIEQSLLEVMEEEELANLRASQREYEELRNSERAEVQRLEEQERRHREEKERRKKQQWEIMHKHNETSQKIAARAFAQRYLADLLPSVFGSLRDSGYFYDPIERDIEIGFLPWLMNEVEKTMEYSMVGRTVLDMLIREVVEKRLCMYEHGEDTHQSPEPEDEPGGPGAMTESLEASEFLEQSMSQTRELLLDGGYLQRTTYDRRSSQERKFMEERELLGQDEETAMRKSLGEEELS
partner: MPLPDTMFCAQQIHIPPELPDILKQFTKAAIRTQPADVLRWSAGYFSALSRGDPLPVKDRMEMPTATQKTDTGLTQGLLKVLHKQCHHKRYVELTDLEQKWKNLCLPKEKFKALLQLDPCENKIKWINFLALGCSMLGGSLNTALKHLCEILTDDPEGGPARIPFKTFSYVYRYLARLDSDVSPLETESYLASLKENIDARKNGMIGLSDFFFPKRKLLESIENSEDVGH
B2: A-kinase anchor protein 17A (Homo sapiens), Q02040 (parent)
chain: MAAATIVHDTSEAVELCPAYGLYLKPITKMTISVALPQLKQPGKSISNWEVMERLKGMVQNHQFSTLRISKSTMDFIRFEGEVENKSLVKSFLACLDGKTIKLSGFSDILKVRAAEFKIDFPTRHDWDSFFRDAKDMNETLPGERPDTIHLEGLPCKWFALKESGSEKPSEDVLVKVFEKFGEIRNVDIPMLDPYREEMTGRNFHTFSFGGHLNFEAYVQYREYMGFIQAMSALRGMKLMYKGEDGKAVACNIKVSFDSTKHLSDASIKKRQLERQKLQELEQQREEQKRREKEAEERQRAEERKQKELEELERERKREEKLRKREQKQRDRELRRNQKKLEKLQAEEQKQLQEKIKLEERKLLLAQRNLQSIRLIAELLSRAKAVKLREQEQKEEKLRLQQQEERRRLQEAELRRVEEEKERALGLQRKERELRERLLSILLSKKPDDSHTHDELGVAHADLLQPVLDILQTVSSGCVSATTLHPLGGQPPAGAPKESPAHPEADGAPKSVNGSVAEEAPCKEVQSSCRVVPEDGSPEKRCPGGVLSCIPDNNQQPKGIPACEQNVSRKDTRSEQDKCNREPSKGRGRATGDGLADRHKRERSRARRASSREDGRPRKERRPHKKHAYKDDSPRRRSTSPDHTRSRRSHSKDRHRRERSRERRGSASRKHSRHRRRSERSRSRSPSRHRSTWNR
B3: BICD family-like cargo adapter 2 (Homo sapiens), A1A5D9 (parent)
chain: MSSPDGPSFPSGPLSGGASPSGDEGFFPFVLERRDSFLGGGPGPEEPEDLALQLQQKEKDLLLAAELGKMLLERNEELRRQLETLSAQHLEREERLQQENHELRRGLAARGAEWEARAVELEGDVEALRAQLGEQRSEQQDSGRERARALSELSEQNLRLSQQLAQASQTEQELQRELDALRGQCQAQALAGAELRTRLESLQGENQMLQSRRQDLEAQIRGLREEVEKGEGRLQTTHEELLLLRRERREHSLELERARSEAGEALSALRRLQRRVSELEEESRLQDADVSAASLQSELAHSLDDGDQGQGADAPGDTPTTRSPKTRKASSPQPSPPEEILEPPKKRTSLSPAEILEEKEVEVAKLQDEISLQQAELQSLREELQRQKELRAQEDPGEALHSALSDRDEAVNKALELSLQLNRVSLERDSLSRELLRAIRQKVALTQELEAWQDDMQVVIGQQLRSQRQKELSASASSSTPRRAAPRFSLRLGPGPAGGFLSNLFRRT
B4: Methylmalonyl-CoA epimerase, mitochondrial (Homo sapiens), Q96PE7 (parent)
chain: MARVLKAAAANAVGLFSRLQAPIPTVRASSTSQPLDQVTGSVWNLGRLNHVAIAVPDLEKAAAFYKNILGAQVSEAVPLPEHGVSVVFVNLGNTKMELLHPLGRDSPIAGFLQKNKAGGMHHICIEVDNINAAVMDLKKKKIRSLSEEVKIGAHGKPVIFLHPKDCGGVLVELEQA
partner: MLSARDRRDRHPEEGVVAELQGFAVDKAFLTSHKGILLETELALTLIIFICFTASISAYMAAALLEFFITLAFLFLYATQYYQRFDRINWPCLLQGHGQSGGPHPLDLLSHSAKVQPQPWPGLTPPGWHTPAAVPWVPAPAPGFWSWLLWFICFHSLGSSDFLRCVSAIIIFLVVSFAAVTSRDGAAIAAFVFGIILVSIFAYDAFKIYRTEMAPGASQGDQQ
B5: Protein LDOC1 (Homo sapiens), O95751 (parent)
chain: MVDELVLLLHALLMRHRALSIENSQLMEQLRLLVCERASLLRQVRPPSCPVPFPETFNGESSRLPEFIVQTASYMLVNENRFCNDAMKVAFLISLLTGEAEEWVVPYIEMDSPILGDYRAFLDEMKQCFGWDDDEDDDDEEEEDDY
partner: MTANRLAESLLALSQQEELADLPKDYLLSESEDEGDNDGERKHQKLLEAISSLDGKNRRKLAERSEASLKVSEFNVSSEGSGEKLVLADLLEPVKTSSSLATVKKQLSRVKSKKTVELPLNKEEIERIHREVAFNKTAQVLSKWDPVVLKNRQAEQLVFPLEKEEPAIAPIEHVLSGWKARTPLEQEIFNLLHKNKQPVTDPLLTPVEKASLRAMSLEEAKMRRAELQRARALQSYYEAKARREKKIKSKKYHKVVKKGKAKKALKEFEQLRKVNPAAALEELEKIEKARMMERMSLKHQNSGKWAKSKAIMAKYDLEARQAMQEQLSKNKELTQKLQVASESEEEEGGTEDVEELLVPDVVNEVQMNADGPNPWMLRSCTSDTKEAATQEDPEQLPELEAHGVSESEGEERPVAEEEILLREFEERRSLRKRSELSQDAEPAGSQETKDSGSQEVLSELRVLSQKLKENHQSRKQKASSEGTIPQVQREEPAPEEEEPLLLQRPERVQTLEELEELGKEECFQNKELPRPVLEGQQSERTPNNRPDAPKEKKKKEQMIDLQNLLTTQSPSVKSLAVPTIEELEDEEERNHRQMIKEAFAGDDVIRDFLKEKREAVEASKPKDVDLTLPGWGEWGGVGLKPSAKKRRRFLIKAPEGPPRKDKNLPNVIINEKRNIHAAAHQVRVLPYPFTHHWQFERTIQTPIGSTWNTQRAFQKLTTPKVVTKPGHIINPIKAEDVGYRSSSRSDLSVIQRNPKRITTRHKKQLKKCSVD
B6: Caspase recruitment domain-containing protein 9 (Homo sapiens), Q9H257 (parent)
chain: MSDYENDDECWSVLEGFRVTLTSVIDPSRITPYLRQCKVLNPDDEEQVLSDPNLVIRKRKVGVLLDILQRTGHKGYVAFLESLELYYPQLYKKVTGKEPARVFSMIIDASGESGLTQLLMTEVMKLQKKVQDLTALLSSKDDFIKELRVKDSLLRKHQERVQRLKEECEAGSRELKRCKEENYDLAMRLAHQSEEKGAALMRNRDLQLEIDQLKHSLMKAEDDCKVERKHTLKLRHAMEQRPSQELLWELQQEKALLQARVQELEASVQEGKLDRSSPYIQVLEEDWRQALRDHQEQANTIFSLRKDLRQGEARRLRCMEEKEMFELQCLALRKDSKMYKDRIEAILLQMEEVAIERDQAIATREELHAQHARGLQEKDALRKQVRELGEKADELQLQVFQCEAQLLAVEGRLRRQQLETLVLSSDLEDGSPRRSQELSLPQDLEDTQLSDKGCLAGGGSPKQPFAALHQEQVLRNPHDAGLSSGEPPEKERRRLKESFENYRRKRALRKMQKGWRQGEEDRENTTGSDNTDTEGS

Variants of: B1
Settings: with rop1l_human ROPN1L
R213W was tested, and the “effect of a mutation on the interaction” value was “with no effect”. With R213Q the “effect of a mutation on the interaction” value was “with no effect”. E484K was tested, and the “effect of a mutation on the interaction” value was “with no effect”. N201S was tested, and the “effect of a mutation on the interaction” value was “with no effect”. For M439T, the “effect of a mutation on the interaction” value was “with no effect”. G518D was tested, and the “effect of a mutation on the interaction” value was “with no effect”.

Variants of: B2
Settings: with cep70_human CEP70, Q8NHQ1
Sequence of cep70_human CEP70, Q8NHQ1 (Q8NHQ1 whole entry): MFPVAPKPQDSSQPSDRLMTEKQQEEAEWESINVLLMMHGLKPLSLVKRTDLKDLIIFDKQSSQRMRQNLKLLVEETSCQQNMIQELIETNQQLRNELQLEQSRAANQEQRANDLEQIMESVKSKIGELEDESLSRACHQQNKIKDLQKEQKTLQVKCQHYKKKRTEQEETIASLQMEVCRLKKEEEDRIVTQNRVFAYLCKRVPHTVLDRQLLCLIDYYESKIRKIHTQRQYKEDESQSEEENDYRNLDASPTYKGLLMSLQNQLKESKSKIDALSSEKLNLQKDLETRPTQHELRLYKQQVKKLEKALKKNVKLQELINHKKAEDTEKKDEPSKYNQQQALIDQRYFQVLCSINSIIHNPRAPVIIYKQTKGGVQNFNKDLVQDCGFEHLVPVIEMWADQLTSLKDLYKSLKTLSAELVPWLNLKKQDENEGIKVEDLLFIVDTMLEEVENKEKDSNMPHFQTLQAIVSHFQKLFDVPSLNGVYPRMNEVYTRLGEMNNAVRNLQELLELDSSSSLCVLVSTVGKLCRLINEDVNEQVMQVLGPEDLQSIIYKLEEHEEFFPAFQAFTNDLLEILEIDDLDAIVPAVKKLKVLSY
With R675C the “effect of a mutation on the interaction” value was “with no effect”. For R298K, the “effect of a mutation on the interaction” value was “with no effect”.

Variants of: B3
Settings: with klc3_human KLC3, Q6P597
Sequence of klc3_human KLC3, Q6P597 (Q6P597 whole entry): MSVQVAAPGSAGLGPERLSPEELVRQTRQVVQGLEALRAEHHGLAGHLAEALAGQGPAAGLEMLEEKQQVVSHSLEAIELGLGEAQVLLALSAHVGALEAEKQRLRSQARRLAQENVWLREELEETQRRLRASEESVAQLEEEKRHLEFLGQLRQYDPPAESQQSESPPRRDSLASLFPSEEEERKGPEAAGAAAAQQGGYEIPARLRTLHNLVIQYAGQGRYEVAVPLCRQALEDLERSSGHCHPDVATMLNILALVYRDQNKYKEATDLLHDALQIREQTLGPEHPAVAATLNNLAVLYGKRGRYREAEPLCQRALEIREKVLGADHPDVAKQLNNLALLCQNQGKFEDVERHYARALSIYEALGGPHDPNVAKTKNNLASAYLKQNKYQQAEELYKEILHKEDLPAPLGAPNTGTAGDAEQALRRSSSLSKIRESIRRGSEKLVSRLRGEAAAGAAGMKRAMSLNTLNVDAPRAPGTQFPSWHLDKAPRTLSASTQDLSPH
In the case of E58K, the “effect of a mutation on the interaction” value is reported as “with no effect”.

Variants of: B4
Settings: with cklf5_human CMTM5, Q96DZ9
In the case of A76V, the “effect of a mutation on the interaction” value is reported as “with no effect”. In the case of R143H, the “effect of a mutation on the interaction” value is reported as “with no effect”.

Variants of: B5
Settings: with ut14a_human UTP14A
For L12H, the “effect of a mutation on the interaction” value was “with no effect”.

Variants of: B6
Settings: with KIAA0408, Q6ZU52
Sequence of KIAA0408, Q6ZU52 (Q6ZU52 whole entry): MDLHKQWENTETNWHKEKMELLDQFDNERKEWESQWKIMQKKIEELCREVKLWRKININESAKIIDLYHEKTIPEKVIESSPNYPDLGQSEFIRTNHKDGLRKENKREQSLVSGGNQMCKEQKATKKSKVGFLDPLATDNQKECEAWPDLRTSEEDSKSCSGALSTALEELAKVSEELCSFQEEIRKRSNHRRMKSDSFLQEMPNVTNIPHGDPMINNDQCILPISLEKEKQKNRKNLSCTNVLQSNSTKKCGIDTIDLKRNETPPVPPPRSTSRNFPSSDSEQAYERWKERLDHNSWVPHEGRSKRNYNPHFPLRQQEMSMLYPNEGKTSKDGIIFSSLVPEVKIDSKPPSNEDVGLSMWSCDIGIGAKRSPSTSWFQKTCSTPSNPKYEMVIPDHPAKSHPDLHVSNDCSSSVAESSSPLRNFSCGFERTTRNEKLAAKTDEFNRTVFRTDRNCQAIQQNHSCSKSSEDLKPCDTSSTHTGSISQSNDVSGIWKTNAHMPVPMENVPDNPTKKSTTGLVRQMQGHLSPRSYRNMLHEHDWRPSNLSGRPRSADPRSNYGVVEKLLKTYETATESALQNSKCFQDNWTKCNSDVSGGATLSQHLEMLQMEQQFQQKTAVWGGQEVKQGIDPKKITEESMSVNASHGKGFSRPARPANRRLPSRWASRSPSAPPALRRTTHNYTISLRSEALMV
In the case of S12N, the “effect of a mutation on the interaction” value is reported as “with no effect”.
